Among the data in the supplement of paper PMC10567573 are protein stability index values, retold here.

To fix the notation:
B1: ZNF649 (parent)
chain: LVAHQRYHTGKTPFVCPECGQPCS
B2: AUP1 (parent)
chain: FCASTRLPPTPLLLFPEEEATNGR
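Note: lentivirally expressed fusions sorted by FACS into six bins by GFP to DsRed ratio, PSI derived from sequencing read proportions per bin multiplied by bin number.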

Variants of B1 are the subject of one data set. Nature of the data set: protein stability index of a GFP-peptide fusion (GPS, HEK-293T) (PSI 1-6); higher = more stable. To be noted: c terminus: a fixed tail appended.
With LVAQQRYHTGKTPFVCPECGQPCS [H4Q], the protein stability index amounted to 3.61.
On the same count and under the same terms, then LVARQRYHTGKTPFVCPECGQPCS [H4R], with 2.77; and LVAAQRYHTGKTPFVCPECGQPCS [H4A], with 3.02; and LVAPQRYHTGKTPFVCPECGQPCS [H4P], with 3.4.
On the same count and under the same terms, to LVALQRYHTGKTPFVCPECGQPCS [H4L] belongs 1.81; to LVADQRYHTGKTPFVCPECGQPCS [H4D], 3.98.
On the same count and under the same terms, to LVAYQRYHTGKTPFVCPECGQPCS [H4Y] belongs 2.64; to LVATQRYHTGKTPFVCPECGQPCS [H4T], 3.17.
In the case of LVACQRYHTGKTPFVCPECGQPCS [H4C], the protein stability index was 4.02.
Same read-out and setting: then LVAWQRYHTGKTPFVCPECGQPCS [H4W], with 2.72; and LVAGQRYHTGKTPFVCPECGQPCS [H4G], with 3.42; and LVAFQRYHTGKTPFVCPECGQPCS [H4F], with 2.76.
On to LVAKQRYHTGKTPFVCPECGQPCS [H4K], for which the protein stability index was 2.49.
With LVASQRYHTGKTPFVCPECGQPCS [H4S], the protein stability index was 2.87.
Same read-out and setting: then LVAIQRYHTGKTPFVCPECGQPCS [H4I], with 2.26.
Still for that read-out and setting: then LVANQRYHTGKTPFVCPECGQPCS [H4N], with 3.33.
As for LVAEQRYHTGKTPFVCPECGQPCS [H4E], the protein stability index amounted to 3.31.
For LVAMQRYHTGKTPFVCPECGQPCS [H4M], the protein stability index was found to be 2.76.

A further data set covers variants of B2. The description is as above. To be noted: c terminus: a fixed tail appended.
As to FCASTRLPPGPLLLFPEEEATNGR [T10G], the protein stability index was 2.53.
In the case of FCASTRLPPCPLLLFPEEEATNGR [T10C], the protein stability index turned out to be 2.33.
As to FCASTRLPPDPLLLFPEEEATNGR [T10D], the protein stability index was 2.84.
As for FCASTRLPPIPLLLFPEEEATNGR [T10I], the protein stability index is 2.52.
Same read-out and setting: then FCASTRLPPTPLLLFPEGEATNGR [E18G], with 2.54; and FCASTRLPPTPLLLFPEMEATNGR [E18M], with 1.94; and FCASTRLPPTPLLLFPEPEATNGR [E18P], with 2.15.
As for FCASTRLPPTPLLLFPECEATNGR [E18C], the protein stability index was found to be 2.18.
On to FCASTRLPPTPLLLFPEYEATNGR [E18Y], for which the protein stability index was 2.07.
The same measure, in the same setting: then FCASTRLPPTPLLLFPEWEATNGR [E18W], with 1.73.
Regarding FCASTRLPPTPLLLFPEEGATNGR [E19G], the protein stability index is 2.29.
For FCASTRLPPTPLLLFPEEWATNGR [E19W], the protein stability index was 1.87.
Same read-out and setting: to FCASTRLPPTPLLLFPEEHATNGR [E19H] belongs 2.23; to FCASTRLPPTPLLLFPEEFATNGR [E19F], 1.73.
Take FCASTRLPPTPLLLFPEEIATNGR [E19I]: the protein stability index amounted to 2.02.
On the same count and under the same terms, then FCASTRLPPTPLLLFPEECATNGR [E19C], with 2.04; and FCASTRLPPTPLLLFPEEEETNGR [A20E], with 3.51; and FCASTRLPPTPLLLFPEEETTNGR [A20T], with 2.97.
Turning to FCASTRLPPTPLLLFPEEEFTNGR [A20F], the protein stability index was found to be 2.21.
The same measure, in the same setting: then FCASTRLPPTPLLLFPEEENTNGR [A20N], with 2.43.
For FCASTRLKPTPLLLFPEEEATNGR [P8K], the protein stability index came to 2.09.
On the same count and under the same terms, to FCASTRLEPTPLLLFPEEEATNGR [P8E] belongs 2.91.
The same measure, in the same setting: then FCASTRQPPTPLLLFPEEEATNGR [L7Q], with 3.16; and FCASTRRPPTPLLLFPEEEATNGR [L7R], with 2.63.
Still for that read-out and setting: to FCASTRLPPTPLLLFPFEEATNGR [E17F] belongs 1.83.
FCASGRLPPTPLLLFPEEEATNGR [T5G]: the protein stability index was 2.7.
On the same count and under the same terms, then FCASFRLPPTPLLLFPEEEATNGR [T5F], with 1.81.
On to FCASCRLPPTPLLLFPEEEATNGR [T5C], for which the protein stability index worked out at 1.86.
Turning to FCASARLPPTPLLLFPEEEATNGR [T5A], the protein stability index was 3.19.
As to FCASLRLPPTPLLLFPEEEATNGR [T5L], the protein stability index was 2.11.
Turning to FCASTRLPPTPLLLFPEEEATRGR [N22R], the protein stability index came to 2.73.
In the case of FCASTRLPPTPLLLFPEEEATWGR [N22W], the protein stability index came to 2.27.
The same measure, in the same setting: then FCASTRLPPTPLLLFPEEEATTGR [N22T], with 3.27; and FCASTRLPPTPLLLFPEEEATGGR [N22G], with 2.16.
Consider FCASTRLPPTPLLLFPEEEATMGR [N22M], for which the protein stability index stood at 2.56.
As for FCASTRLPPTPLLLFPEEEATNQR [G23Q], the protein stability index came to 3.09.
For FCASTRLPPTPLLLFPEEEATNPR [G23P], the protein stability index was found to be 2.75.
Same read-out and setting: to FCASTRLPPTPLLLFPEEEATNHR [G23H] belongs 2.82; to FCASTRLPPTPLLLFPEEEASNGR [T21S], 2.52.
The same measure, in the same setting: to FCASTRLPPTPLGLFPEEEATNGR [L13G] belongs 3.42; to FCASTRLPPTPLKLFPEEEATNGR [L13K], 2.74.
Same read-out and setting: to FCASTRLPPTPLSLFPEEEATNGR [L13S] belongs 3.54; to FCASTRLPPTNLLLFPEEEATNGR [P11N], 2.83; to FCASTRLPPTILLLFPEEEATNGR [P11I], 2.04.
As for FCASTRLPPTVLLLFPEEEATNGR [P11V], the protein stability index turned out to be 2.8.
The same measure, in the same setting: to FCASTRLPPTSLLLFPEEEATNGR [P11S] belongs 3.05; to FCASTRLPPTFLLLFPEEEATNGR [P11F], 2.08; to FCASTRLPGTPLLLFPEEEATNGR [P9G], 2.78.
On the same count and under the same terms, to FCASTRLPYTPLLLFPEEEATNGR [P9Y] belongs 2.03; to FCASTRLPITPLLLFPEEEATNGR [P9I], 2.43.
Still for that read-out and setting: then FCASTRLPPTPLLLFLEEEATNGR [P16L], with 1.57; and FCASTRLPPTPLLLFHEEEATNGR [P16H], with 2.61.
Take FCASTRLPPTPLLDFPEEEATNGR [L14D]: the protein stability index came out at 4.01.
Regarding FCASTRLPPTPLLNFPEEEATNGR [L14N], the protein stability index is 3.61.
Same read-out and setting: then FCASTRLPPTPLLQFPEEEATNGR [L14Q], with 3.88.
On the same count and under the same terms, then FCASTRLPPTPLLRFPEEEATNGR [L14R], with 3.56.
On the same count and under the same terms, then FCASTRLPPTPLLVFPEEEATNGR [L14V], with 3.24; and FCQSTRLPPTPLLLFPEEEATNGR [A3Q], with 2.88.
With FCRSTRLPPTPLLLFPEEEATNGR [A3R], the protein stability index was 2.23.
Regarding FCFSTRLPPTPLLLFPEEEATNGR [A3F], the protein stability index stood at 2.45.
The same measure, in the same setting: then QCASTRLPPTPLLLFPEEEATNGR [F1Q], with 4.54; and HCASTRLPPTPLLLFPEEEATNGR [F1H], with 4.28.
Consider CCASTRLPPTPLLLFPEEEATNGR [F1C], for which the protein stability index was found to be 2.6.
As to ECASTRLPPTPLLLFPEEEATNGR [F1E], the protein stability index turned out to be 4.65.
On the same count and under the same terms, to FCASTRLPPTPHLLFPEEEATNGR [L12H] belongs 2.87; to FCASTRLPPTPLLLFPEEEATNGG [R24G], 3.69; to FCASTRLPPTPLLLFPEEEATNGA [R24A], 3.27.
On the same count and under the same terms, to FCASTRLPPTPLLLFPEEEATNGC [R24C] belongs 2.72; to FCASTDLPPTPLLLFPEEEATNGR [R6D], 3.9.
On the same count and under the same terms, to FCASTFLPPTPLLLFPEEEATNGR [R6F] belongs 2.2.
Take FCASTALPPTPLLLFPEEEATNGR [R6A]: the protein stability index came out at 3.37.
With FCASTRLPPTPLLLIPEEEATNGR [F15I], the protein stability index worked out at 3.23.
With FCASTRLPPTPLLLHPEEEATNGR [F15H], the protein stability index worked out at 3.34.
As for FCASTRLPPTPLLLRPEEEATNGR [F15R], the protein stability index is 3.37.
With FCAVTRLPPTPLLLFPEEEATNGR [S4V], the protein stability index amounted to 3.08.
On the same count and under the same terms, to FCAMTRLPPTPLLLFPEEEATNGR [S4M] belongs 2.59.
